Laboratory results reported in the supplement of paper PMC9170038.

System: MS2 coat protein
Assay: apparent KD of MS2 coat protein; higher = weaker reporter binding
Details: Eterna round: R107
Procedure, shortened: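 SNAP-549-labelled MS2 coat protein was titrated onto designed RNA switches that had been transcribed on-chip from Illumina sequencing clusters. Amounts doubled from 0.7 or 1.5 nM to 3 µM in 100 mM Tris-HCl pH 7.5, 80 mM KCl, 4 mM MgCl2, with constant ligand or without. Apparent KD is the median per design of normalised cluster binding-curve fits.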

[1] = input ligand: theophylline 20 uM
[2] = input ligand: theophylline 2 mM
[3] = input ligand: tryptophan 2.4 mM

Sequence | apparent KD of MS2 coat protein (input ligand: arginine 13.2 mM) | apparent KD of MS2 coat protein (input ligand: none) | apparent KD of MS2 coat protein [1] | apparent KD of MS2 coat protein [2] | apparent KD of MS2 coat protein [3]
UGUCGAAACUGAAGGAGCGAGAUGACAACAUUGGGUCUAACAUGAGGAUCACCCAUGUAAUCUCAGGUAGGUCGCAGUGACAAAA [Exclusion Arginine B GF 15] | 0.0645 µM | 0.0947 µM | 0.123 µM | 0.133 µM | 0.121 µM
CUCAUCCACGCGGCCGCCACUAUAUUGUGGUGUGAAUGUGUCGUAAUACAUGAGGAUCACCCAUGUAGGACCGGGCGUGGAUGAG [#08 Exclusion Tryptophan B] | 0.0193 µM | – | 0.0309 µM | 0.0374 µM | –
UGUAACAUGAGGAUCACCCAUGUGAGUGAUACCAGACUAGUGUUGGUCCCUUGGCAGCACGCUGGACGAAUGUGUAGUCUAUGCG [Same State - Theophylline A (Freestyle 18)] | 0.0595 µM | – | 0.107 µM | – | 0.0774 µM
CCAUGGCUAGGAAGGAGCGCAUACUUCACAUGAGGAUCACCCAUGUCGAGACGUGAGUCAGUGCAGGUAGGUCGCCUAGCCAUGG [Same State - Arginine B (Freestyle 30)] | 0.0198 µM | 0.0167 µM | 0.0292 µM | 0.0248 µM | 0.0186 µM
ACAUUUAACUGAAGGAGCGUGAUAUACAUGAGGAUCACCCAUGUGUCUUACAUGAAUAAUUCACAGGUAGGUCGCAGACUAAUGA [JR_ExcArginiB_Sub009] | 0.0305 µM | 0.0267 µM | 0.0337 µM | 0.0394 µM | 0.0321 µM
UAAAGUAGGUCCAAUAAAACUACAUGUGAAGGAGCGCGCGAAAGCGCAGGUAGGUCGCACAUGAGGAUCACCCAUGUCCUACAAU [MAT - Exclusion Arginine A - Mod of Eli - D17] | 0.0426 µM | 0.0515 µM | 0.0691 µM | 0.0682 µM | 0.043 µM
GCGUCGGUCGGAAGGAGCGACAUGAGGAUCACCCAUGUCUCCCGUUAUGGGAGUUCCUUAGGUCAGGUAGGUCGCCGACGGACGC [#1 Exclusion - Arginine B Attempt #19 (Inspired by Omei)] | 0.0638 µM | 0.17 µM | 0.19 µM | 0.216 µM | 0.196 µM
ACAUGAGGAUCACCCAUGUAUUCAUCAGAAGGAGCGUGGAAUAACACAGGUAGGUCGCUGAUUAUUUGUUAAAUAAAAUCGUGUA [JR_Nu_SSArginiA_Sub022] | 0.0125 µM | 0.0173 µM | 0.0206 µM | 0.0171 µM | 0.0183 µM
UAAUGCAGGUCGGCCGCCACUACAACAUGAGGAUCACCCAUGUACAUGUUGUAGUACGGUAUGAGUAGGACCGGGACCUGCAUAA [Trp-Ms2-M'-T'-(MT)'_Design1] | 0.213 µM | 0.299 µM | 0.154 µM | 0.594 µM | 0.787 µM
GAUUAAACAUGAGGAUCACCCAUGUAUAUACGAGGACCGGUACGGCCGCCACUCGUAAACGAGUAUCCUCGAAUAAACAUGAUAA [AK 2.1 SS Trypt (A)] | 0.044 µM | – | 0.113 µM | 0.182 µM | –
AGCAUGUUAUCAGAUACCAGACAUCUUUUAAUACAUAUUACAUGAGGAUCACCCAUGUUGGUCCCUUGGCAGCUGAAAUAUUUCA [JR_Nu_SSTheophyB_Sub023] | 0.124 µM | – | 0.223 µM | – | 0.36 µM
ACAUUUAACUGAAGGAGCGUGAUUAACAUGAGGAUCACCCAUGUAACUUAGAUGCUUAUAUCACAGGUAGGUCGCAGACUAAUGA [JR_ExcArginiB_Sub011] | 0.0139 µM | 0.0136 µM | 0.0183 µM | 0.0149 µM | 0.0155 µM
AGCCGCGUUCUUUCUUUCUUUCUAGCGGCACGAGGACCGGUACGGCCGCCACUCGCCCACAUGAGGAUCACCCAUGUAGUGGGUG [The One Ring #2] | 0.0185 µM | – | 0.0277 µM | 0.0239 µM | –
AUAUUUAAUGGAAGGAGCGCGGAUAAUAAAGUGGGUAAACAUGAGGAUCACCCAUGUAAACCGCAGGUAGGUCGCCGAAAUAUAU [AstrosEXyARgB#8] | 0.0566 µM | 0.039 µM | 0.0494 µM | 0.0576 µM | 0.047 µM
UAUCCACAUGAGGAUCACCCAUGUUAGGAAGGAGCGGUGAAUGAACCAGGUAGGUCGCCUAGGUGAGGACCAUCUAUGGAUUCGU [Exclusion - Arginine A (Freestyle 12)] | 0.0128 µM | 0.0133 µM | 0.0198 µM | 0.0146 µM | 0.0131 µM
ACGAACUGUAGUGAUACCAGACGUACAUGAGGAUCACCCAUGUUGUAAACAUGGUGAAUAGUCCCUUGGCAGCACAGUUAGUUCG [#11 Exclusion-TheophyllineB] | 0.162 µM | – | 0.355 µM | – | 0.299 µM
GACAUGAGGAUCACCCAUGUGUAACCAGAAGGAGCGUGCGAAAGCACAGGUAGGUCGCUGGUGGGUUUAGGUUUAGUAGGUGUUC [SSAA NP+V+V2 #3] | 0.0876 µM | 0.0692 µM | 0.101 µM | 0.139 µM | 0.0564 µM
CCGCACAUGAGGAUCACCCAUGUCAGGGAUACCAGCCCAGACAUGGGCCCUUGGCAGCCCUGUAGCUGACGAAAGUCAGCAGCGG [Omei Theo A SS A v1] | 0.0519 µM | 0.0317 µM | 0.277 µM | 0.0576 µM | 0.0447 µM
